For assay [1], the target named is mAID-EGFP-NLS (arabidopsis).
The target in assay [2] is mAID-EGFP-NLS (arabidopsis). This is another data set of the same source.
In assay [3] the target is RAD21-mAID-Clover (human; arabidopsis) (UniProt O60216).
Assay [4] deals with mAID-EGFP-NLS (arabidopsis). This is another data set of the same source.

Read-outs that look alike come from different tables or passages of the source.

OsTIR1(WT) (receptor), sequence (chain): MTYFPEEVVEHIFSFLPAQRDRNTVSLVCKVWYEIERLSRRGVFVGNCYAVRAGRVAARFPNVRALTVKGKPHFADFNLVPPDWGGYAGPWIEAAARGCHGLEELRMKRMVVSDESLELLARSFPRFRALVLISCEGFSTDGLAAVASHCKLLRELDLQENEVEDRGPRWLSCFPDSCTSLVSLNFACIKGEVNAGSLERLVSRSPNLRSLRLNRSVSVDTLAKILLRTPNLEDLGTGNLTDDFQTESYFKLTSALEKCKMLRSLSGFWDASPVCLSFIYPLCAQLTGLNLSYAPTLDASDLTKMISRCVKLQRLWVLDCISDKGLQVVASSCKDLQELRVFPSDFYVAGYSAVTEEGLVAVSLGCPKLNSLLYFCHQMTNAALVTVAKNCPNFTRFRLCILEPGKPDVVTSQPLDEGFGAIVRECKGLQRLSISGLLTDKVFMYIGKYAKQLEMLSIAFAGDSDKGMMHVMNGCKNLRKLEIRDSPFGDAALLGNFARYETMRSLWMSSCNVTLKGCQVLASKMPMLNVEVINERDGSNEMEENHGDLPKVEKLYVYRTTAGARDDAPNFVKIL
RAD21-mAID-Clover (human; arabidopsis), sequence (O60216 other isoform, or with tags, fused parts or gaps): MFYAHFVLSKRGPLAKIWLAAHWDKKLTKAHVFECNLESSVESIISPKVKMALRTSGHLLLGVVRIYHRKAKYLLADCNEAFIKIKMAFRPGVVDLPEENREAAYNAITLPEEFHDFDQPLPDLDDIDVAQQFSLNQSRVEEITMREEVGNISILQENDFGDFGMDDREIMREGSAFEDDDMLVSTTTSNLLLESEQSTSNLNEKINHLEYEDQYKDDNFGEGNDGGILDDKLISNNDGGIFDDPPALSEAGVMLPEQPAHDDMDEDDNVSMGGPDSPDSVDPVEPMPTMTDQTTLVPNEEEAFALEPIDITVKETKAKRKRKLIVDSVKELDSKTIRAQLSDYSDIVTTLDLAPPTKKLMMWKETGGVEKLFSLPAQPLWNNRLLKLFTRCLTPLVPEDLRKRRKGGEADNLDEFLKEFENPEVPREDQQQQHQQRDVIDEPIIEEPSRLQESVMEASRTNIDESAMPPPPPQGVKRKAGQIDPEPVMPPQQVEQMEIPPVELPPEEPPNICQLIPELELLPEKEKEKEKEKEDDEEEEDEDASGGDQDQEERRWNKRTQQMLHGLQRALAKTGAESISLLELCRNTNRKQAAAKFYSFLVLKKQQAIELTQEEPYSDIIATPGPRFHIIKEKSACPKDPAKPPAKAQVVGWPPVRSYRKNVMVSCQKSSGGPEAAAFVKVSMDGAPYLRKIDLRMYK
OsTIR1(WT), sequence (chain): as the sequence (chain) above

On to OsTIR1(WT) (receptor), for which, in assay [1], the half-life of the reporter after ligand addition (time course) was 147 min. In assay [2], this substance came in with a DC 50 (concentration of IAA (auxin) for 50% degradation of the reporter) of 0.3 µM.

With OsTIR1(F74G) (receptor), the T1/2 of RAD21-mAC after the addition of a ligand in assay [3] stood at 11.7 min. The substance further registered a DC 50 (concentration of 5-Ph-IAA for 50% degradation of the reporter) in assay [2] of 0.00045 µM. Moreover, the half-life of the reporter after ligand addition (time course) in assay [4] worked out at 62.3 min.

For the substance OsTIR1(WT), the T1/2 of RAD21-mAC after the addition of a ligand in assay [3] was found to be 26.5 min.

Values taken from patent publication US20220380782A1.
